Data from IntAct's records for PubMed 18550832.

Target: stk39_mouse Stk39 (UniProt Q9Z1W9)

Serine/threonine-protein kinase WNK3 (Homo sapiens), Q9BYP7-2 F1337A
effect of a mutation on the interaction: disrupting interaction
